Assay results published in US20130011380A1.
Values joined by “and” are separate entries in the source; they are usually repeats but may differ in a detail not shown here. Equal entries are not always repeated.

Key:
Test in all cases: anti-Flag IP-MS, mES nuclear extract
Atxn10 (mouse) = Atxn10 (mouse) (UniProt P28658)
Cct7 (mouse) = Cct7 (mouse) (UniProt P80313)
Col18a1 (mouse) = Col18a1 (mouse) (UniProt P39061)
Copa (mouse) = Copa (mouse) (UniProt Q8CIE6)
Cttn (mouse) = Cttn (mouse) (UniProt Q60598)
Dnaja1 (mouse) = Dnaja1 (mouse) (UniProt P63037)
Dnaja2 (mouse) = Dnaja2 (mouse) (UniProt Q9QYJ0)
Dnmt3b (mouse) = Dnmt3b (mouse) (UniProt O88509)
Dnmt3l (mouse) = Dnmt3l (mouse) (UniProt Q9CWR8)
Emd (mouse) = Emd (mouse) (UniProt O08579)
Etl4 (mouse) = Etl4 (mouse) (UniProt A2AQ25)
Etl4 (mouse), sequence (A2AQ25 whole entry): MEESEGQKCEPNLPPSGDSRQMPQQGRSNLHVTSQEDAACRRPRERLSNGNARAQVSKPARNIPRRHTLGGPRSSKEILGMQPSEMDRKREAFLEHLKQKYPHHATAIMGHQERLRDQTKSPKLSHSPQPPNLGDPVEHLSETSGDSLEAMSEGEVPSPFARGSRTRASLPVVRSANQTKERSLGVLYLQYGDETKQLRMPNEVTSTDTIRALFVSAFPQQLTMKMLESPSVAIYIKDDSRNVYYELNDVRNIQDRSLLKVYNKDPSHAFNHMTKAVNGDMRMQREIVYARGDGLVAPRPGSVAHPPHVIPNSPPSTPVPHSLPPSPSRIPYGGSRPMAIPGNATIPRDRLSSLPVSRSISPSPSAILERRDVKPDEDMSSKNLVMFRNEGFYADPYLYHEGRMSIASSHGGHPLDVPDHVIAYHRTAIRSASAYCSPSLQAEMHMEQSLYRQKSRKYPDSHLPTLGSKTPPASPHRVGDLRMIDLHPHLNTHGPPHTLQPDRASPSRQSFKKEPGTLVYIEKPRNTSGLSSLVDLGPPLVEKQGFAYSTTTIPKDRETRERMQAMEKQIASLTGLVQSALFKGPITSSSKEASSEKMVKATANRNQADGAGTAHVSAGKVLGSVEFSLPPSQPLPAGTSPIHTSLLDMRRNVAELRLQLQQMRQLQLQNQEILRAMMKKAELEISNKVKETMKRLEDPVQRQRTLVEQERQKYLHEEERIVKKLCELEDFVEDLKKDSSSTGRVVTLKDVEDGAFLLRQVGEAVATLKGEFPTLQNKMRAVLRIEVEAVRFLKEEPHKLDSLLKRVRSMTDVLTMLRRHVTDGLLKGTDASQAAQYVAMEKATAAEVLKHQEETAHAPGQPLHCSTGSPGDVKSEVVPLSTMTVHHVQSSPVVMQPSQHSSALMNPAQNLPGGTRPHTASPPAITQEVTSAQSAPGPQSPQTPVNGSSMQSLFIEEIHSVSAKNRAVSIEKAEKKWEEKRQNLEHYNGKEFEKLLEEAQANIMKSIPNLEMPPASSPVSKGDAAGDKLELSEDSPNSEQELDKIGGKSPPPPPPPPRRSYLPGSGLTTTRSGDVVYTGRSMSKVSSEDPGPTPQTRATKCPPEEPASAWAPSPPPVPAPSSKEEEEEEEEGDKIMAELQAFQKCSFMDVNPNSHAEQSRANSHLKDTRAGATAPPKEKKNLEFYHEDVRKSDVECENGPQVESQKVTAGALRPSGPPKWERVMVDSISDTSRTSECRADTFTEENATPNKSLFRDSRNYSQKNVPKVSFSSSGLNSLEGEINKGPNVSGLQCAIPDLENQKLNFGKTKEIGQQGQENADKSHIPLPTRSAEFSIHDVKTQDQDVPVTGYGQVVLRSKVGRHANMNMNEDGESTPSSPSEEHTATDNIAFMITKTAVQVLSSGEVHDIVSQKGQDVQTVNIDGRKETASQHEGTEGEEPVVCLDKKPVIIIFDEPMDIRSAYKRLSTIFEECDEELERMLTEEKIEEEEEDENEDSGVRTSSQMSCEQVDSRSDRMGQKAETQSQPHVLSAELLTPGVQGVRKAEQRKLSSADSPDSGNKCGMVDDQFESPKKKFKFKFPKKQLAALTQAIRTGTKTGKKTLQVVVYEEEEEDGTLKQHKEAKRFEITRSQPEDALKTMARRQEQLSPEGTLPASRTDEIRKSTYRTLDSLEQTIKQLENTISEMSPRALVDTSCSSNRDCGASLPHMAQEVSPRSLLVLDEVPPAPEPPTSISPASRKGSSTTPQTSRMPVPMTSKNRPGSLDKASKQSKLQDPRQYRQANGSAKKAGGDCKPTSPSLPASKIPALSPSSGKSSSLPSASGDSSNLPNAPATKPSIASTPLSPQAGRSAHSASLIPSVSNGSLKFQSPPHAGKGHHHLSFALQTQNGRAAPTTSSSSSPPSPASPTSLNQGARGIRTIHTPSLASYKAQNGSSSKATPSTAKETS

Kars (mouse) = Kars (mouse) (UniProt Q99MN1)
Kars (mouse), sequence (Q99MN1 2-595 limits assumed): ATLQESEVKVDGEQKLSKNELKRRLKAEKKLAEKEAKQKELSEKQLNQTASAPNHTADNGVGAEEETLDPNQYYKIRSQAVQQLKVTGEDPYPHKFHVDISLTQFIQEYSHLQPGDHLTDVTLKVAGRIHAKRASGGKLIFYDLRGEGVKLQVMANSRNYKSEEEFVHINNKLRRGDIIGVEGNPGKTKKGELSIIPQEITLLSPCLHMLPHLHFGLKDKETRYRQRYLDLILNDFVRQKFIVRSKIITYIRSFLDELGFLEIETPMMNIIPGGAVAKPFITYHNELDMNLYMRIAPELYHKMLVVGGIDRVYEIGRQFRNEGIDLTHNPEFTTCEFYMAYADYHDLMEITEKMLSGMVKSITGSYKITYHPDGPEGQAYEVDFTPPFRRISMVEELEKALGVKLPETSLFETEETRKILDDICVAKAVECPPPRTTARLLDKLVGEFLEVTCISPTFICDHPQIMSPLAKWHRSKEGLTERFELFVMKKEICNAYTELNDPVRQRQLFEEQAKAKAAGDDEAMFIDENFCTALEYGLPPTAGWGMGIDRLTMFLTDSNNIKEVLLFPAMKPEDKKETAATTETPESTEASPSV

Lmo7 (mouse) = Lmo7 (mouse) (UniProt E9PYF4)
Ncapg (mouse) = Ncapg (mouse) (UniProt E9PWG6)
Nup160 (mouse) = Nup160 (mouse) (UniProt Q9Z0W3)
Nup188 (mouse) = Nup188 (mouse) (UniProt Q6ZQH8)
Prdx6 (mouse) = Prdx6 (mouse) (UniProt O08709)
Prpf4b (mouse) = Prpf4b (mouse) (UniProt Q61136)
Rfc2 (mouse) = Rfc2 (mouse) (UniProt Q9WUK4)
Ruvbl1 (mouse) = Ruvbl1 (mouse) (UniProt P60122)
Ruvbl1 (mouse), sequence (P60122 whole entry): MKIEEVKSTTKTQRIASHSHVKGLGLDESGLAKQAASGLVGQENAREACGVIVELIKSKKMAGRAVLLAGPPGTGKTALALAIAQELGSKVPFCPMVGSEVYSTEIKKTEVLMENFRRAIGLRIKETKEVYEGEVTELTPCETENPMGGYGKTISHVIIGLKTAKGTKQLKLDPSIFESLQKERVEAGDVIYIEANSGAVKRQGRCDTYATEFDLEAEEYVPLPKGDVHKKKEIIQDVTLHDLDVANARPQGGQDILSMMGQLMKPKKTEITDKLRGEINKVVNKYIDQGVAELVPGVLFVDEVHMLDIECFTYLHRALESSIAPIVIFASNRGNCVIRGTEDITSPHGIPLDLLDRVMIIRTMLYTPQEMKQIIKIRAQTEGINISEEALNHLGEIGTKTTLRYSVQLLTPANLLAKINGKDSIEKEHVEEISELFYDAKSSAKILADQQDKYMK

Ruvbl2 (mouse) = Ruvbl2 (mouse) (UniProt Q9WTM5)
Seh1l (mouse) = Seh1l (mouse) (UniProt Q8R2U0)
Smarca5 (mouse) = Smarca5 (mouse) (UniProt Q91ZW3)
Smpd4 (mouse) = Smpd4 (mouse) (UniProt Q6ZPR5)
Ssr1 (mouse) = Ssr1 (mouse) (UniProt Q9CY50)
Tip2 (mouse) = target: Tip2 (mouse)
Tmpo (mouse) = target: Tmpo (mouse)
Uba2 (mouse) = Uba2 (mouse) (UniProt Q9Z1F9)
Xpo1 (mouse) = Xpo1 (mouse) (UniProt Q6P5F9)
Ywhab (mouse) = Ywhab (mouse) (UniProt Q9CQV8)
Zc3h18 (mouse) = Zc3h18 (mouse) (UniProt Q0P678)
Zc3h18 (mouse), sequence (Q0P678 whole entry): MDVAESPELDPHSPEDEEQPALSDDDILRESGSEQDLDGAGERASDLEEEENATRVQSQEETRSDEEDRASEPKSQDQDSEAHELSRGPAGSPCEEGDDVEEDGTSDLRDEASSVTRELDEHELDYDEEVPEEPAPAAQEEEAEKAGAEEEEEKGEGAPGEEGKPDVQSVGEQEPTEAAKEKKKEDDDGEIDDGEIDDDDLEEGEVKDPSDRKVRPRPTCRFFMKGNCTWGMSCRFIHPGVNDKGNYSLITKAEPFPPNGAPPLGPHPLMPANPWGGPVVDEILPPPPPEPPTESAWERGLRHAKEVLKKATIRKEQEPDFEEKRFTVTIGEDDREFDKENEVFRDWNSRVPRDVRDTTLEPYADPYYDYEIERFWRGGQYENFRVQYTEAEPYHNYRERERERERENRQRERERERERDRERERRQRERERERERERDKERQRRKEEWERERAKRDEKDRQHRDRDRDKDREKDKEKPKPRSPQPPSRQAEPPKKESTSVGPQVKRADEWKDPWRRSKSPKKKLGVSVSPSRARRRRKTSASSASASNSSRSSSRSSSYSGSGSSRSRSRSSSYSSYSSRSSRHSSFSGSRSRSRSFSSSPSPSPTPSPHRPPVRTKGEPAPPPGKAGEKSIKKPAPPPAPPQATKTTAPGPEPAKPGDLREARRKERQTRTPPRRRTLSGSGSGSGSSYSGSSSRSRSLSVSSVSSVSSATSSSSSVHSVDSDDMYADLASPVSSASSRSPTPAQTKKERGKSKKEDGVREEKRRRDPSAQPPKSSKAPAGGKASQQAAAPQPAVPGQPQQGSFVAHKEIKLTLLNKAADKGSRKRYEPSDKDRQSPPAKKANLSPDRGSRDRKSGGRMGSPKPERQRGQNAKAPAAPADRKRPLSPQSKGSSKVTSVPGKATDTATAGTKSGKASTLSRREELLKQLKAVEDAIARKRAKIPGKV

Kif23 (mouse) = Kif23 (mouse) (UniProt E9Q5G3)

Atxn10 (mouse), sequence (P28658 whole entry): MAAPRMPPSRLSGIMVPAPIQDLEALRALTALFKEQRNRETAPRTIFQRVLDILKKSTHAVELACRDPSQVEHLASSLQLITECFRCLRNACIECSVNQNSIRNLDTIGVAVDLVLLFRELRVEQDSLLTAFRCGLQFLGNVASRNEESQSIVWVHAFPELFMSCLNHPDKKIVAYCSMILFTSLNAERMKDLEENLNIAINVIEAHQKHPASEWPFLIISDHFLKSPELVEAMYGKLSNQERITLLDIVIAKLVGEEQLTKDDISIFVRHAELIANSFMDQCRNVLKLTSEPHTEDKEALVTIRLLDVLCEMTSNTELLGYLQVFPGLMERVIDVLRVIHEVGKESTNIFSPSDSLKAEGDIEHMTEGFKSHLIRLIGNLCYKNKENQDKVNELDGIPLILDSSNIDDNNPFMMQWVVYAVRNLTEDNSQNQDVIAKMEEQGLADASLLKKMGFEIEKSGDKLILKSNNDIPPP
Cct7 (mouse), sequence (P80313 whole entry): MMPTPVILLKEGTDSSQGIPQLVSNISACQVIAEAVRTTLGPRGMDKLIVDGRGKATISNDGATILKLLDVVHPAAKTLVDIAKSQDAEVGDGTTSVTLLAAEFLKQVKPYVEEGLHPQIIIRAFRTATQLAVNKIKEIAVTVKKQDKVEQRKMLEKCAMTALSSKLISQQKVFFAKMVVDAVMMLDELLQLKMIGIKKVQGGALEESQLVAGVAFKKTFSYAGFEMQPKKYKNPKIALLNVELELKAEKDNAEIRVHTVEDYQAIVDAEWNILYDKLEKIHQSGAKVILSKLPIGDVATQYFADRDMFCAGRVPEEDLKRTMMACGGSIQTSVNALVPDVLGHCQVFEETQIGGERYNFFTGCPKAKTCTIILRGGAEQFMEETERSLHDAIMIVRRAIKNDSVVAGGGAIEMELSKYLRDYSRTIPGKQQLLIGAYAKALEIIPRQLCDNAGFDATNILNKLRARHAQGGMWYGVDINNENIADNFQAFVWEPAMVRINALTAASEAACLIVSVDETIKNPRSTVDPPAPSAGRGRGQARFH

2x Flag tag only (control) (peptide)
Nucleus peptide (Atxn10 (mouse)): 4 peptides | Nucleus spectra (Atxn10 (mouse)): 10 spectra | Nucleus peptide (Cct7 (mouse)): 0 peptides | Nucleus spectra (Cct7 (mouse)): 0 spectra | Nucleus peptide (Col18a1 (mouse)): 1 peptides | Nucleus spectra (Col18a1 (mouse)): 1 spectra | Nucleus peptide (Copa (mouse)): 1 peptides | Nucleus spectra (Copa (mouse)): 4 spectra | Nucleus peptide (Cttn (mouse)): 1 peptides | Nucleus spectra (Cttn (mouse)): 2 spectra | Nucleus peptide (Dnaja1 (mouse)): 3 peptides | Nucleus spectra (Dnaja1 (mouse)): 5 spectra | Nucleus peptide (Dnaja2 (mouse)): 1 peptides | Nucleus spectra (Dnaja2 (mouse)): 2 spectra | Nucleus peptide (Dnmt3b (mouse)): 0 peptides | Nucleus spectra (Dnmt3b (mouse)): 0 spectra | Nucleus peptide (Dnmt3l (mouse)): 2 peptides | Nucleus spectra (Dnmt3l (mouse)): 4 spectra | Nucleus peptide (Emd (mouse)): 1 peptides | Nucleus spectra (Emd (mouse)): 1 spectra | Nucleus peptide (Etl4 (mouse)): 0 peptides | Nucleus spectra (Etl4 (mouse)): 0 spectra | Nucleus peptide (Kars (mouse)): 0 peptides | Nucleus spectra (Kars (mouse)): 0 spectra | Nucleus peptide (Lmo7 (mouse)): 0 peptides | Nucleus spectra (Lmo7 (mouse)): 0 spectra | Nucleus peptide (Ncapg (mouse)): 0 peptides | Nucleus spectra (Ncapg (mouse)): 0 spectra | Nucleus peptide (Nup160 (mouse)): 6 peptides | Nucleus spectra (Nup160 (mouse)): 11 spectra | Nucleus peptide (Nup188 (mouse)): 2 peptides | Nucleus spectra (Nup188 (mouse)): 3 spectra | Nucleus peptide (Prdx6 (mouse)): 1 peptides | Nucleus spectra (Prdx6 (mouse)): 1 spectra | Nucleus peptide (Prpf4b (mouse)): 0 peptides | Nucleus spectra (Prpf4b (mouse)): 0 spectra | Nucleus peptide (Rfc2 (mouse)): 0 peptides | Nucleus spectra (Rfc2 (mouse)): 0 spectra | Nucleus peptide (Ruvbl1 (mouse)): 9 peptides | Nucleus spectra (Ruvbl1 (mouse)): 17 spectra | Nucleus peptide (Ruvbl2 (mouse)): 4 peptides | Nucleus spectra (Ruvbl2 (mouse)): 10 spectra | Nucleus peptide (Seh1l (mouse)): 2 peptides | Nucleus spectra (Seh1l (mouse)): 4 spectra | Nucleus peptide (Smarca5 (mouse)): 8 peptides | Nucleus spectra (Smarca5 (mouse)): 15 spectra | Nucleus peptide (Smpd4 (mouse)): 4 peptides | Nucleus spectra (Smpd4 (mouse)): 8 spectra | Nucleus peptide (Ssr1 (mouse)): 0 peptides | Nucleus spectra (Ssr1 (mouse)): 0 spectra | Nucleus peptide (Tip2 (mouse)): 6 peptides | Nucleus spectra (Tip2 (mouse)): 14 spectra | Nucleus peptide (Tmpo (mouse)): 2 peptides | Nucleus spectra (Tmpo (mouse)): 6 spectra | Nucleus peptide (Uba2 (mouse)): 2 peptides | Nucleus spectra (Uba2 (mouse)): 2 spectra | Nucleus peptide (Xpo1 (mouse)): 0 peptides | Nucleus spectra (Xpo1 (mouse)): 0 spectra | Nucleus peptide (Ywhab (mouse)): 0 peptides | Nucleus spectra (Ywhab (mouse)): 0 spectra | Nucleus peptide (Zc3h18 (mouse)): 3 peptides and 1 peptides

human AID containing two tandem Flag tags (Flag-human AID) (from UniProt Q9GZX7 1-198) (enzyme)
Nucleus peptide (Atxn10 (mouse)): 10 peptides | Nucleus spectra (Atxn10 (mouse)): 23 spectra | Nucleus peptide (Cct7 (mouse)): 3 peptides | Nucleus spectra (Cct7 (mouse)): 5 spectra | Nucleus peptide (Col18a1 (mouse)): 4 peptides | Nucleus spectra (Col18a1 (mouse)): 5 spectra | Nucleus peptide (Copa (mouse)): 5 peptides | Nucleus spectra (Copa (mouse)): 9 spectra | Nucleus peptide (Cttn (mouse)): 4 peptides | Nucleus spectra (Cttn (mouse)): 9 spectra | Nucleus peptide (Dnaja1 (mouse)): 13 peptides | Nucleus spectra (Dnaja1 (mouse)): 49 spectra | Nucleus peptide (Dnaja2 (mouse)): 12 peptides | Nucleus spectra (Dnaja2 (mouse)): 43 spectra | Nucleus peptide (Dnmt3b (mouse)): 4 peptides | Nucleus spectra (Dnmt3b (mouse)): 9 spectra | Nucleus peptide (Dnmt3l (mouse)): 4 peptides | Nucleus spectra (Dnmt3l (mouse)): 10 spectra | Nucleus peptide (Emd (mouse)): 4 peptides | Nucleus spectra (Emd (mouse)): 10 spectra | Nucleus peptide (Etl4 (mouse)): 7 peptides | Nucleus spectra (Etl4 (mouse)): 13 spectra | Nucleus peptide (Kars (mouse)): 6 peptides | Nucleus spectra (Kars (mouse)): 9 spectra | Nucleus peptide (Kif23 (mouse)): 4 peptides and 7 peptides | Nucleus spectra (Kif23 (mouse)): 11 spectra and 18 spectra | Nucleus peptide (Ncapg (mouse)): 4 peptides | Nucleus spectra (Ncapg (mouse)): 9 spectra | Nucleus peptide (Nup160 (mouse)): 12 peptides | Nucleus spectra (Nup160 (mouse)): 24 spectra | Nucleus peptide (Nup188 (mouse)): 4 peptides | Nucleus spectra (Nup188 (mouse)): 7 spectra | Nucleus peptide (Prdx6 (mouse)): 3 peptides | Nucleus spectra (Prdx6 (mouse)): 3 spectra | Nucleus peptide (Prpf4b (mouse)): 3 peptides | Nucleus spectra (Prpf4b (mouse)): 7 spectra | Nucleus peptide (Rfc2 (mouse)): 3 peptides | Nucleus spectra (Rfc2 (mouse)): 8 spectra | Nucleus peptide (Ruvbl1 (mouse)): 13 peptides | Nucleus spectra (Ruvbl1 (mouse)): 37 spectra | Nucleus peptide (Ruvbl2 (mouse)): 12 peptides | Nucleus spectra (Ruvbl2 (mouse)): 31 spectra | Nucleus peptide (Seh1l (mouse)): 5 peptides | Nucleus spectra (Seh1l (mouse)): 13 spectra | Nucleus peptide (Smarca5 (mouse)): 16 peptides | Nucleus spectra (Smarca5 (mouse)): 45 spectra | Nucleus peptide (Smpd4 (mouse)): 9 peptides | Nucleus spectra (Smpd4 (mouse)): 17 spectra | Nucleus peptide (Ssr1 (mouse)): 3 peptides | Nucleus spectra (Ssr1 (mouse)): 9 spectra | Nucleus peptide (Uba2 (mouse)): 5 peptides | Nucleus spectra (Uba2 (mouse)): 5 spectra | Nucleus peptide (Xpo1 (mouse)): 4 peptides | Nucleus spectra (Xpo1 (mouse)): 6 spectra | Nucleus peptide (Ywhab (mouse)): 3 peptides | Nucleus spectra (Ywhab (mouse)): 7 spectra | Nucleus peptide (Zc3h18 (mouse)): 5 peptides and 2 peptides | Nucleus spectra (Zc3h18 (mouse)): 20 spectra and 8 spectra
